Article PMC10937111, “Structural basis for intra- and intermolecular interactions on RAD9 subunit of 9-1-1 checkpoint clamp implies functional 9-1-1 regulation by RHINO” (The Journal of Biological Chemistry, 2024)
Numbering of substitutions follows the chain as printed. Numbers in names are those of the source. Each block holds one binder with its values, some of them ahead of it.

Legend:
[1] = molecular target: T1, FLAG-tagged 9^ΔC-1-1 (9-1-1 ring), wild type (human, UniProt Q99638 1-272; O60671 1-282; O60921 1-280); assay: pull-down; GST or GST-fusion proteins from E. coli lysate immobilised on Glutathione-Sepharose 4B beads and washed four times; incubated with purified PCNA, FLAG-tagged 9^ΔC-1-1 (W) or its LVF mutant for 2 h at 4 °C in 25 μl of buffer H (25 mM HEPES-NaOH pH 7.8, 150 mM NaCl, 1 mM EDTA, 10% glycerol, 0.01% NP-40); immunoblotting with anti-RAD1 or anti-PCNA antibody; settings: both partners purified
T1 construct: RAD9 with the C-tail truncated (RAD9^ΔC), human, residues 1-272, from pFastBac1-FLAG-RAD9^ΔC; RAD1 subunit of 9-1-1; HUS1 subunit of 9-1-1; also called 9^ΔC-1-1 (W); purified 9^ΔC-1-1; copies: + +
T1 sequence (looked up) 1: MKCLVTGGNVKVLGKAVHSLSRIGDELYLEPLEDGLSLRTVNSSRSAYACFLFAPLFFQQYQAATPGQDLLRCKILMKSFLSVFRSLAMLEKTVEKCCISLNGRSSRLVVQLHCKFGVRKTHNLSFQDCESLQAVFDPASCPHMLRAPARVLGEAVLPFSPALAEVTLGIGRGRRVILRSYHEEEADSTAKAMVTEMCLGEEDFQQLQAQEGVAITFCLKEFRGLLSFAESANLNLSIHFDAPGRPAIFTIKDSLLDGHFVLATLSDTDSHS
T1 sequence (looked up) 2: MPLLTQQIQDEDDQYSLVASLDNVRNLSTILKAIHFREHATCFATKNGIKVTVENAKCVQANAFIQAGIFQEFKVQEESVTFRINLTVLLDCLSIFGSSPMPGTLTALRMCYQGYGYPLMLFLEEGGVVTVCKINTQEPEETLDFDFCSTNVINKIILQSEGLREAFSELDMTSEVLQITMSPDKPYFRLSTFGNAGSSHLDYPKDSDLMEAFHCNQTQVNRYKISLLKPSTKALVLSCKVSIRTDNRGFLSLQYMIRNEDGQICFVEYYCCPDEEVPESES
T1 sequence (looked up) 3: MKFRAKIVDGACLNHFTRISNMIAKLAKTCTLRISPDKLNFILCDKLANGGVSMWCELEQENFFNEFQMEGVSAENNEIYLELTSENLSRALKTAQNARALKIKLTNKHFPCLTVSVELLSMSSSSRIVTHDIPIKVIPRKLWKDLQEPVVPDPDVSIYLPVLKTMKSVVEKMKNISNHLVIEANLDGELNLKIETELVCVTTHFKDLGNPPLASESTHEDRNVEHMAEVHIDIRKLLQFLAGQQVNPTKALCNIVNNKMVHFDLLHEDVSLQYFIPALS

[2] = molecular target: T2, recombinant human 9-1-1 ring for crystallization (RAD9 residues 1-270, His-HUS1, RAD1 F64A/M256A/F266A) (human, UniProt Q99638 1-270; O60671 1-282; O60921 2-280, F64A | M256A | F266A); assay: crystal structure; 0.13 mM 9-1-1 ring incubated with about 10-fold molar excess of the RHINO peptide at 277 K overnight; vapor diffusion, 0.2 M potassium iodine, 14% PEG 3350, 293 K; 2.81 Å; settings: both partners purified
T2 construct: C-terminal truncated RAD9, human, residues 1-270; RAD1, human, with the triple substitutions F64A/M256A/F266A; HUS1, human; source: E. coli BL21(DE3), co-expressed, purified (HiTrap Heparin, HiTrap Q, HiLoad Superdex200); copies: + +
T2 sequence 1: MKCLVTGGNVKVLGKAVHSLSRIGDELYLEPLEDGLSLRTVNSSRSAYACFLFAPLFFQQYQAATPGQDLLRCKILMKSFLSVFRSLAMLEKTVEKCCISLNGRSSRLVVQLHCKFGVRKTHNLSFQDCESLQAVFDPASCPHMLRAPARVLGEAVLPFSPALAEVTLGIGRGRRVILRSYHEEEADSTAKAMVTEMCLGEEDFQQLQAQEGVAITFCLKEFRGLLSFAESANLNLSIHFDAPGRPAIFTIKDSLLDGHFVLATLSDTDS
T2 sequence 2: T1 sequence (looked up) 2 with F64A, M256A, F266A
T2 sequence 3: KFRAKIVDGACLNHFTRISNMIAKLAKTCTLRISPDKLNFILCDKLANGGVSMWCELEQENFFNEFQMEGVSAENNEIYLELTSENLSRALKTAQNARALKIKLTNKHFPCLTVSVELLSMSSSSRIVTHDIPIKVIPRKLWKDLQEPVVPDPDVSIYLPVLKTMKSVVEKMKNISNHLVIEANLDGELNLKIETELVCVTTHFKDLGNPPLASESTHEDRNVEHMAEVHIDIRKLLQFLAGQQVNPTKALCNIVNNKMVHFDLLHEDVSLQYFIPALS

B1: GST-RAD9C15 F361A (peptide, UniProt Q99638 356-370, looked up)
chain: PPPKKARSLFFGSIL
notes: RAD9, human, residues 356-370 of the C-tail, F361A; source: E. coli Rosetta 2(DE3)pLysS, from cell lysate immobilised on Glutathione-Sepharose 4B beads and washed
binding result [1]: binds

B2: GST-p21CT FY (F150A/Y151A) (domain or fragment, human, UniProt P38936 87-164, looked up)
chain: DELGGGRRPGTSPALLQGTAEEDHVDLSLSCTLVPRSGEQAEGSPGGPGDSQGRKRRQTSMTDAAHSKRRLIFSKRKP
notes: p21, C-terminal region, residues 87-164, F150A/Y151A in the PIP-box; also called p21CT variant with the F150A/Y151A double substitution in the PIP-box; source: E. coli Rosetta 2(DE3)pLysS, from cell lysate immobilised on Glutathione-Sepharose 4B beads and washed
binding result [1]: binds

B3: GST-tagged p21 C-terminal region (residues 87-164) (GST-p21CT), wild type (domain or fragment, human, UniProt P38936 87-164, looked up)
chain: B2 chain with A64F, A65Y
notes: p21, C-terminal region carrying the PIP-box, residues 87-164; also called p21 (W); source: E. coli Rosetta 2(DE3)pLysS, from cell lysate immobilised on Glutathione-Sepharose 4B beads and washed
binding result [1]: binds

Second part, the binder after the results:

binding result [1]: binds
B4: GST-tagged RAD9 (residues 356-370) (GST-RAD9C15), wild type (peptide, UniProt Q99638 356-370, looked up)
chain: PPPKKFRSLFFGSIL
notes: RAD9, human, residues 356-370 of the C-tail; source: E. coli Rosetta 2(DE3)pLysS, from cell lysate immobilised on Glutathione-Sepharose 4B beads and washed

binding result [1]: binds
B5: GST-RAD9C15 F365A (peptide, UniProt Q99638 356-370, looked up)
chain: PPPKKFRSLAFGSIL
notes: RAD9, human, residues 356-370 of the C-tail, F365A; source: E. coli Rosetta 2(DE3)pLysS, from cell lysate immobilised on Glutathione-Sepharose 4B beads and washed

binding result [2]: binds
B6: human RHINO peptide (88-TSKFPHLTFESP-99) (peptide)
peptide: TSKFPHLTFESP
notes: also called RHINO (residues 88-99); source: synthetic peptide (TORAY Research Center, Inc)
